Measured values published in article PMC10354202 (2023).

Tests used:
Experiment in all cases: magnetic tweezers
talin VBS [1] = target: T1, talin VBS (UniProt Q9Y490, talin stretched at low force, matured complex)
T1 chain: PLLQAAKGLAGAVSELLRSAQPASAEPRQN

talin VBS [2] = target: T2, talin VBS (UniProt Q9Y490, talin stretched above ~10 pN)
T2 chain: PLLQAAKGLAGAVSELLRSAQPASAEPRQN

talin VBS [3] = target: T3, talin VBS (UniProt Q9Y490, talin stretched at low force (up to ~9-10 pN))
T3 chain: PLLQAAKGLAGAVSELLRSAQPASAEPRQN

Kd (talin VBS [1]): ~0.004 nM | Kd (talin VBS [2]): ~5 nM | Kd (talin VBS [3]): ~0.2 nM
B1: vinculin (protein)
chain: MPVFHTRTIESILEPVAQQISHLVIMHEEGEVDGKAIPDLTAPVAAVQAAVSNLVRVGKETVQTTEDQILKRDMPPAFIKVENACTKLVQAAQMLQSDPYSVPARDYLIDGSRGILSGTSDLLLTFDEAEVRKIIRVCKGILEYLTVAEVVETMEDLVTYTKNLGPGMTKMAKMIDERQQELTHQEHRVMLVNSMNTVKELLPVLISAMKIFVTTKNSKNQGIEEALKNRNFTVEKMSAEINEIIRVLQLTSWDEDAWASKDTEAMKRALASIDSKLNQAKGWLRDPSASPGDAGEQAIRQILDEAGKVGELCAGKERREILGTCKMLGQMTDQVADLRARGQGSSPVAMQKAQQVSQGLDVLTAKVENAARKLEAMTNSKQSIAKKIDAAQNWLADPNGGPEGEEQIRGALAEARKIAELCDDPKERDDILRSLGEISALTSKLADLRRQGKGDSPEARALAKQVATALQNLQTKTNRAVANSRPAKAAVHLEGKIEQAQRWIDNPTVDDRGVGQAAIRGLVAEGHRLANVMMGPYRQDLLAKCDRVDQLTAQLADLAARGEGESPQARALASQLQDSLKDLKARMQEAMTQEVSDVFSDTTTPIKLLAVAATAPPDAPNREEVFDERAANFENHSGKLGATAEKAAAVGTANKSTVEGIQASVKTARELTPQVVSAARILLRNPGNQAAYEHFETMKNQWIDNVEKMTGLVDEAIDTKSLLDASEEAIKKDLDKCKVAMANIQPQMLVAGATSIARRANRILLVAKREVENSEDPKFREAVKAASDELSKTISPMVMDAKAVAGNISDPGLQKSFLDSGYRILGAVAKVREAFQPQEPDFPPPPPDLEQLRLTDELAPPKPPLPEGEVPPPRPPPPEEKDEEFPEQKAGEVINQPMMMAARQLHDEARKWSSKPGIPAAEVGIGVVAEADAADAAGFPVPPDMEDDYEPELLLMPSNQPVNQPILAAAQSLHREATKWSSKGNDIIAAAKRMALLMAEMSRLVRGGSGTKRALIQCAKDIAKASDEVTRLAKEVAKQCTDKRIRTNLLQVCERIPTISTQLKILSTVKATMLGRTNISDEESEQATEMLVHNAQNLMQSVKETVREAEAASIKIRTDAGFTLRWVRKTPWYQ
